Assay results reported in the supplement of paper PMC10567573.

B1: MNAT1 (parent)
chain: LAPIHKLEEALYEYQPLQIETYGP
B2: TBX5 (parent)
chain: YQNHKITQLKIENNPFAKGFRGSD

Variants of: B1
Test: protein stability index of a GFP-peptide fusion (GPS, HEK-293T) (PSI 1-6); higher = more stable
Details: c terminus: a fixed tail appended
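Also: lentivirally expressed fusions sorted by FACS into six bins by GFP to DsRed ratio, PSI derived from sequencing read proportions per bin multiplied by bin number.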

Protein stability index, by site and new letter:
H5: I 1.71, M 1.71, R 2.56, S 2.11, K 2.62, Y 1.61, W 2.34, N 2.21, L 1.88, A 2.17, Q 2.92, C 1.64, T 1.59, D 2.33, F 2.03, P 1.84, G 1.96, E 1.92, V 1.49
L1: D 2.31, I 1.94, N 2.79, C 1.25, K 2.33, P 2.3, G 1.98, A 2.28, W 2.56, R 2.5, S 2.62, E 2.52, H 1.67, V 2.31, M 1.87, T 2.33, Q 2.47, Y 2.12
I4: D 2.78, H 2.63, G 3.06, S 2.3, C 2.49, N 2.35, R 2.75, L 2.04, E 2.78, A 2.95, K 2.17, W 1.59, F 1.88, V 2.13, T 2.15, P 2.55, Q 2.7, M 1.92, Y 1.66
P3: L 2.95, W 1.44, I 2.72, G 2.02, V 2.7, N 1.32, D 1.46, S 2.12, T 2.32, A 2.23, Y 2.18, H 1.87, R 2.1, K 2.04, F 2.67, C 1.53, Q 1.67, M 2.48, E 1.97
K6: Q 2.24, A 1.97, S 2.24, L 2.29, C 1.64, D 1.94, I 1.4, W 2.4, N 2.27, V 2.14, F 2.75, E 2.27, G 1.9, P 2.13, T 1.84, R 1.8, H 1.97, M 1.44
A2: C 1.68, V 2.54, Y 1.9, N 2.23, L 2.93, H 2.21, S 2.29, G 1.45, K 1.92, R 1.62, Q 2.07, E 2.47, T 2.63, I 1.91, M 1.63, W 2.44, P 2.3, D 1.77, F 3.4

Variants of: B2
Test: as above
Details: c terminus: a fixed tail appended

Protein stability index of substitutions, site by site:
S23: D 2.83, Q 2.71, N 2.39, P 2.55, H 2.47, A 2.25, W 2.02, T 2.3, E 2.42, G 2.59, K 2.64, V 2.35, M 2.18, C 2.49, I 2.12, L 2.11, Y 2.55, F 1.92, R 2.63
D24: E 2.64, N 2.57, W 1.32, V 1.83, L 1.95, A 2.43, F 1.95, I 2.08, R 2.69, Y 2.04, P 2.39, C 2.25, K 2.53, H 1.99, G 2.39, M 2.43, T 2.11, Q 1.88, S 2.14
G22: W 1.76, E 2.33, I 2.48, F 1.74, L 2.02, M 2.49, V 2.32, K 2.49, P 3.32, T 2.67, H 2.46, D 2.56, S 2.57, R 2.12, Q 2.83, N 2.4, Y 2.63
